Reference: article PMC5778702

Molecular target: pCMV-HA-H (HA-H), hemagglutinin (H) protein of Peste des petits ruminants virus with HA tag (Peste des petits ruminants virus)
Test: SPR; […]; Biacore 3000, 25 °C, HBS-EP (10 mM HEPES pH 7.4, 150 mM NaCl, 3 mM EDTA, 0.005% P20); […]

pCMV-HA-HRA (HA-HRA), heptad repeat region A of the PPRV F protein with HA tag (domain or fragment)
Kd: 108000 nM | koff: 0.00414 s⁻¹ | kon: 38.2 M⁻¹ s⁻¹

pCMV-HA-F (HA-F), fusion (F) protein of Peste des petits ruminants virus with HA tag (natural protein)
Kd: 19.1 nM | koff: 0.000937 s⁻¹ | kon: 49100 M⁻¹ s⁻¹

pCMV-HA-HRB (HA-HRB), heptad repeat region B of the PPRV F protein with HA tag (domain or fragment)
Kd: 260 nM | koff: 0.00299 s⁻¹ | kon: 11500 M⁻¹ s⁻¹
